The results in this text go back to patent publication EP4725969A1 (Latticon (Suzhou) Biopharmaceuticals Co., Ltd., dated 2024).

Numbering of substitutions follows the chain as printed. In names and notes the source's numbering stands.

B1: Hu2126-H1K1 (antibody, human IgG1, V domains shown)
VH: QVQLQESGPGLVKPSETLSLTCTASGYTFTDYSMHWVRQPPGKGLEWMGWINTETGEPTYADDFKGRFTFSLDTSKNQASLKLSSVTAADTAVYFCVRVGRYDYAMDYWGQGTTVTVSS
VL: DIQMTQSPSSLSASVGDRVTITCKASQDVYTAVAWYQQKPGKAPKLLINSASYRYTGVPSRFSGSGSGTDFTLTISSLQPEDFATYYCQQHYSTPPTFGGGTKVEIK
B2: Hu2126-H2K1-L71-H72b-Mu11 (antibody, IgG1, V domains shown)
VH: QVQLVQSGSELKKPGASVKVSCKASGYTFTDYSMHWVRQAPGQGLEWMGWINTGTGEPTYADDFKGRFTISRDTSKSTAYLQISSLKAEDTAVYYCVRVGRYDYAMDYWGQGTTVTVSS
VL: B1 VL with K24R, S50D, Y53S, Y55P, H91Y
notes: IgG1/Cκ; also called 7172b-Mu11
B3: Hu2126-H2K1-L71-H72b-Mu18 (antibody, IgG1, V domains shown)
VH: B2 VH
VL: B1 VL with K24R, S50W, Y53S, Y55P, H91Y
notes: IgG1/Cκ; also called 7172b-Mu18
B4: Hu2126-H2K1-L71-H72b-Mu14 (antibody, IgG1, V domains shown)
VH: B2 VH
VL: B1 VL with K24R, S50L, Y53S, Y55P, H91Y
notes: IgG1/Cκ; also called 7172b-Mu14; Hu2126-7172b-Mu14
B5: Hu2126-H2K1-L71-H72b-Mu12 (antibody, IgG1, V domains shown)
VH: B2 VH
VL: B1 VL with K24R, S50E, Y53S, Y55P, H91Y
notes: IgG1/Cκ; also called 7172b-Mu12
B6: Hu2126-H2K1-L71-H72b-Mu10 (antibody, IgG1, V domains shown)
VH: B2 VH
VL: B1 VL with K24R, S50A, Y53S, Y55P, H91Y
notes: IgG1/Cκ; also called 7172b-Mu10
B7: Hu2126-H2K1-L71-H72b-Mu16 (antibody, IgG1, V domains shown)
VH: B2 VH
VL: B1 VL with K24R, S50R, Y53S, Y55P, H91Y
notes: IgG1/Cκ; also called 7172b-Mu16
B8: Hu2126-H2K1-L71-H72b-Mu13 (antibody, IgG1, V domains shown)
VH: B2 VH
VL: B1 VL with K24R, S50K, Y53S, Y55P, H91Y
notes: IgG1/Cκ; also called 7172b-Mu13
B9: Hu2126-H2K1-L71-H72b-Mu19 (antibody, IgG1, V domains shown)
VH: B2 VH
VL: B1 VL with K24R, S50Y, Y53S, Y55P, H91Y
notes: IgG1/Cκ; also called 7172b-Mu19
B10: Hu2126-H2K1-L71-H72b-Mu17 (antibody, IgG1, V domains shown)
VH: B2 VH
VL: B1 VL with K24R, Y53S, Y55P, H91Y
notes: IgG1/Cκ; also called 7172b-Mu17
B11: Hu2126-H2K1-L71-H72b-Mu15 (antibody, IgG1, V domains shown)
VH: B2 VH
VL: B1 VL with K24R, S50Q, Y53S, Y55P, H91Y
notes: IgG1/Cκ; also called 7172b-Mu15
B12: Mu2117KH (Fc fusion)
scFv: DVVLTQTPLSLPVSLGDQASISCRSSQSLVHSNGNTYLHWYLQKPGQSPKLLIYKVSNRFSGVPDRFSGSGSGTDFTLKISRVEAEDLGVYFCSQSTHVPYTFGGGTKLEIKGGGGSGGGGSGGGGSEVKIEESGGGLVKPGGSLKLSCAASGFTYSSYGMSWVRQTPEKRLEWVASISGGGSYTKYPDSVKGRFTISRDNAKNHLYLQMSSLRSEDTALYYCARDYAGFFDVWGAGTTVTVSS
notes: scFv-hIgG1 Fc fusion of mAb2117 V regions, VL-(G4S)3-VH; also called chimeric single-chain antibody control; not shown: human IgG1 Fc
B13: Mu2117HK (Fc fusion)
scFv: EVKIEESGGGLVKPGGSLKLSCAASGFTYSSYGMSWVRQTPEKRLEWVASISGGGSYTKYPDSVKGRFTISRDNAKNHLYLQMSSLRSEDTALYYCARDYAGFFDVWGAGTTVTVSSGGGGSGGGGSGGGGSDVVLTQTPLSLPVSLGDQASISCRSSQSLVHSNGNTYLHWYLQKPGQSPKLLIYKVSNRFSGVPDRFSGSGSGTDFTLKISRVEAEDLGVYFCSQSTHVPYTFGGGTKLEIK
notes: scFv-hIgG1 Fc fusion of mAb2117 V regions, VH-(G4S)3-VL; also called chimeric single-chain antibody control; not shown: human IgG1 Fc
B14: Hu2117KH (Fc fusion)
scFv: DIQMTQSPSSLSASVGDRVTITCRSSQSLVHSNGNTYLHWYQQKPGKAPKLLIYKVSNRFSGVPSRFSGSGSGTDFTLTISSLQPEDFATYFCSQSTHVPYTFGQGTKVEIKGGGGSGGGGSGGGGSEVQLVESGGGLVQPGGSLRLSCAASGFTYSSYGMSWVRQAPGKGLEWVASISGGGSYTKYPDSVKGRFTISRDNSKNTLYLQMNSLRAEDTAVYYCARDYAGFFDVWGQGTLVTVSS
notes: not shown: human IgG1 Fc
B15: Hu2117HK-Mu32 (Fc fusion)
scFv: EVQLVESGGGLVQPGGSLRLSCAASGFTYSSYGMSWVRQAPGKGLEWVASISGGGSYTKYPDSVKGRFTISRDNSKNTLYLQMNSLRAEDTAVYYCARDYAGFFDVWGQGTLVTVSSGGGGSGGGGSGGGGSDIQMTQSPSSLSASVGDRVTITCRSSQSLVSSNGNTYLHWYQQKPGKAPKLLIYKVSNRFSGVPSRFSGSGSGTDFTLTISSLQPEDFATYFCSQSTHVPYTFGQGTKVEIK
notes: scFv-hIgG1 Fc; not shown: human IgG1 Fc
B16: Hu2117HK-Mu47 (Fc fusion, name in Kabat numbering)
scFv: B15 scFv with A101Q, S163H
notes: as for B15
B17: Hu2117HK-Mu46 (Fc fusion)
scFv: B15 scFv with A101N, S163H
notes: as for B15
B18: Hu2117HK-Mu36 (Fc fusion, name in Kabat numbering)
scFv: B15 scFv with S163H, S226M
notes: as for B15
B19: Hu2117HK-Mu48 (Fc fusion)
scFv: B15 scFv with A101R, S163H
notes: as for B15
B20: Hu2117HK-Mu34 (Fc fusion)
scFv: B15 scFv with S163H, S226Q
notes: as for B15
B21: Hu2117HK-Mu42 (Fc fusion)
scFv: B15 scFv with G54S, S163H
notes: as for B15
B22: Hu2117HK-Mu43 (Fc fusion, name in Kabat numbering)
scFv: B15 scFv with A101D, S163H
notes: as for B15
B23: Hu2117HK-Mu49 (Fc fusion)
scFv: B15 scFv with A101S, S163H
notes: as for B15
B24: Hu2117HK-Mu41 (Fc fusion)
scFv: B15 scFv with S56N, T58A, S163H
notes: as for B15
B25: Hu2117HK-Mu50 (Fc fusion)
scFv: B15 scFv with A101V, S163H
notes: as for B15
B26: Hu2117HK-Mu44 (Fc fusion, name in Kabat numbering)
scFv: B15 scFv with A101E, S163H
notes: as for B15
B27: Hu2117HK-Mu38 (Fc fusion)
scFv: B15 scFv with S30N, S31N, S163H
notes: as for B15
B28: Hu2117HK-Mu45 (Fc fusion)
scFv: B15 scFv with A101I, S163H
notes: as for B15
B29: Hu2117HK-Mu35 (Fc fusion, name in Kabat numbering)
scFv: B15 scFv with S163H, S226L
notes: as for B15
B30: Hu2117HK-Mu40 (Fc fusion)
scFv: B15 scFv with S31D, S163H
notes: as for B15
B31: Hu2117HK-Mu39 (Fc fusion)
scFv: B15 scFv with S31N, S163H
notes: as for B15

One may read the Kd as a measure of binding affinity in units of concentration. What is called koff is a measure of how fast the partners let go of each other. For orientation: kon means the rate constant with which the complex forms.

The target of one experiment is T1, recombinant human HER2 extracellular domain protein (human, UniProt P04626 23-652).
T1 construct: range 23-652; Range is printed for the immunogen/panning protein; also called ErbB2; recombinant HER2 protein
The experiment in a line: BLI, Protein A capture.
B1: the Kd worked out at 19.1 nM, the koff was determined as 0.0018 s⁻¹ and the kon is 94500 M⁻¹ s⁻¹.

A further experiment concerns the target T1, recombinant human HER2 extracellular …. The experiment in a line: BLI, Protein A capture. This is another data set of the same source. For orientation: In BLI a coated tip is dipped into the sample, and binding shifts an interference pattern.
As for B2, the Kd amounted to 5.35 nM, the koff stood at 0.000482 s⁻¹ and the kon was determined as 90100 M⁻¹ s⁻¹.
As to B3, the Kd stood at 7.96 nM and the kon was determined as 124000 M⁻¹ s⁻¹.
For B4, the Kd turned out to be 0.825 nM, the koff was 8.31e-05 s⁻¹ and the kon was determined as 101000 M⁻¹ s⁻¹.
As for B5, the Kd was 6.74 nM and the kon is 78300 M⁻¹ s⁻¹.
Take B6: the Kd is 3.38 nM, the koff worked out at 0.000356 s⁻¹ and the kon came out at 105000 M⁻¹ s⁻¹.
On the same counts, the results for B7 are 5.77 nM, 0.000578 s⁻¹ and 100000 M⁻¹ s⁻¹.
On the same counts, the results for B8 are 7.23 nM, 0.000707 s⁻¹ and 97800 M⁻¹ s⁻¹.
On to B9, for which the Kd came to 2.9 nM, the koff worked out at 0.000314 s⁻¹ and the kon is 108000 M⁻¹ s⁻¹.
On the same counts, the results for B10 are 2.8 nM, 0.000276 s⁻¹ and 98500 M⁻¹ s⁻¹.
Take B11: the Kd worked out at 4.49 nM and the kon was 106000 M⁻¹ s⁻¹.

For a further experiment the target is unchanged. The experiment can be described thus: BLI (ForteBio).
Consider B12, for which the Kd worked out at 77.2 nM, the koff worked out at 0.00545 s⁻¹ and the kon came to 70600 M⁻¹ s⁻¹.
On the same counts, the results for B13 are 76 nM, 0.00523 s⁻¹ and 68800 M⁻¹ s⁻¹.
On the same counts, the results for B14 are 147 nM, 0.00381 s⁻¹ and 25900 M⁻¹ s⁻¹.

The target is the same in the next experiment. The experiment in a line: BLI, Protein A capture. The source holds these as a separate data set.
As to B15, the Kd came to 6.09 nM, the koff is 0.000366 s⁻¹ and the kon came to 60100 M⁻¹ s⁻¹.
On the same counts, the results for B16 are 15.3 nM, 0.000828 s⁻¹ and 54300 M⁻¹ s⁻¹.
On the same counts, the results for B17 are 10.3 nM, 0.000794 s⁻¹ and 77400 M⁻¹ s⁻¹.
On the same counts, the results for B18 are 31.4 nM, 0.00198 s⁻¹ and 63200 M⁻¹ s⁻¹.
As to B19, the Kd is 12.1 nM, the koff came out at 0.00118 s⁻¹ and the kon is 97900 M⁻¹ s⁻¹.
On the same counts, the results for B20 are 12.6 nM, 0.00117 s⁻¹ and 93500 M⁻¹ s⁻¹.
With B21, the Kd is 33.5 nM, the koff came to 0.00178 s⁻¹ and the kon turned out to be 53000 M⁻¹ s⁻¹.
On the same counts, the results for B22 are 56.7 nM, 0.00406 s⁻¹ and 71700 M⁻¹ s⁻¹.
On the same counts, the results for B23 are 11.8 nM, 0.000761 s⁻¹ and 64500 M⁻¹ s⁻¹.
Turning to B24, the Kd was determined as 9.66 nM, the koff was found to be 0.000603 s⁻¹ and the kon came out at 62400 M⁻¹ s⁻¹.
Regarding B25, the Kd is 16 nM, the off-rate constant (koff) turned out to be 0.0016 s⁻¹ and the kon turned out to be 100000 M⁻¹ s⁻¹.
For the molecule B26, the Kd stood at 42.5 nM, the koff came to 0.0034 s⁻¹ and the kon was determined as 80000 M⁻¹ s⁻¹.
On the same counts, the results for B27 are 12.1 nM, 0.00121 s⁻¹ and 100000 M⁻¹ s⁻¹.
On the same counts, the results for B28 are 12.8 nM, 0.00126 s⁻¹ and 98000 M⁻¹ s⁻¹.
On the same counts, the results for B29 are 59.8 nM, 0.0037 s⁻¹ and 61900 M⁻¹ s⁻¹.
On to B30, for which the Kd is 11.9 nM, the koff came to 0.000867 s⁻¹ and the kon turned out to be 72700 M⁻¹ s⁻¹.
On the same counts, the results for B31 are 12.3 nM, 0.0012 s⁻¹ and 97700 M⁻¹ s⁻¹.
